Experiment [1] has as its target SARS-CoV-2 S receptor-binding domain (RBD), biotinylated (SARS-CoV-2, UniProt P0DTC2 330-531). Description: BLI. On the technique in general: BLI is a label-free optical method that tracks binding on a fibre tip over time.
Experiment [2] deals with biotinylated SARS-CoV RBD (SARS-CoV, UniProt P59594, biotin). As to the kind of experiment: BLI.

For orientation: koff means the rate constant with which the complex falls apart. Lower therefore signals slow dissociation.

B1: scFD20 (single-chain variable fragment of FD20) (scFv, V domains shown)
VH: QVQLQQSGAEVKKPGSSVKVSCKASGGTFSSYAFSWVRQAPGQGLEWMGRIIPILGIANYAQKFQGRVTITADISTSTAYMALSSLRSEDTAVYYCAKVEVNIGMDDYYYYYGMDVWGQGTTVTVSS
VL: not shown
Take B1: the dissociation rate constant (koff) amounted to 0.000664 s⁻¹ in experiment [1] and 0.00054 s⁻¹ in experiment [2].

The values are drawn from publication PMC8646660 (2021).
